Test results from patent US10098967B2, “Self-assembly of therapeutic agent-peptide nanostructures” (Ohio State Innovation Foundation, priority 2012, dated 2018).
Structures can show the parent of a compound that is named as a salt. Peptide text beside a SMILES is read from it. * marks the point of attachment. Succinyl(20-O-(20S)-CPT) = CC[C@@]1(OC(=O)CCC(=O)*)C(=O)OCc2c1cc1n(c2=O)Cc2cc3ccccc3nc2-1; Fmoc = O=C(OCC1c2ccccc2-c2ccccc21)*

How the values were obtained:
[1] = Solubility in PBS and water; type: physicochemical; settings: for solubility in water: pure water (H2O)
Description: Three CPT-tetrapeptide (KFKK (SEQ ID NO:6)) conjugates were prepared that have alternating hydrophobic and hydrophilic sequence similar to the dipeptide derivatives with one additional lysine bearing a charged free amine. Compound E, F, and G were soluble in both H2O and PBS but as hydrophobicity decreased by changing the N-termini from -Fmoc to —NH2, solubility in both solutions increased.

[2] = Hydrolytic (lactone) stability in PBS by HPLC; type: physicochemical; settings: for lactone form present after 7 days: stored at 10 mM
Description: The hydrolytic stability of C and D was measured by HPLC in PBS at 37° C. over a week as a function of concentration. […] The stability of the lactone depended strongly on the concentration (FIG. 11(A)). For example, the amount of lactone remaining after 7 days decreased from 91 to 30% for C upon changing the concentration from 10 to 0.2 mM). This progression is consistent with the non-covalent nature of the nanotube structures, which depend on concentration. However, even at 0.2 mM in PBS, 80% of the lactone remained after 24 h, in contrast to CPT, of which 17% of its structure was in the lactone form after 24 h under these conditions.

[3] = Lactone stability in human serum (HS) by HPLC
Description: FIG. 11 (A) is a graph showing lactone stability of CPT-dipeptides Ac-KK(CPT)-NH2 (C), and NH2—KK(CPT)-NH2 (D) in human serum (HS) at 37° C. (pH 7.4) at 1 and 10 mM, as monitored by HPLC. […] Samples were prepared at 10 mM in PBS and subsequently diluted to 1 mM in HS after 24 h.

[4] = tested on: mesothelioma tumor xenografts; experiment: Mesothelioma (MSTO) tumor xenograft model in mice; type: in vivo; settings: for Deaths from Tumor Burden: MSTO model, mice, weekly
Description: (§1) NH2—KK(CPT)-NH2 (D) was evaluated for efficacy in treating Lewis Lung Carcinoma (LLC) and mesothelioma tumor xenografts in mice. Animals were first injected with tumor cells either into the flank (LLC model; FIG. 12) or peritoneum (mesothelioma model; Table 2)), and allowed to develop small tumors. The animals were subsequently administered weekly either intravenous or intraperitoneal drugs or saline (negative control), and monitored for tumor burden and body weight over several weeks. […] But these initial studies were extremely limited in scope, only testing one of 15-20 structures that have been created. This lower efficacy is most likely due to reduced mobility of the 1D nanotubes within tissue, a property that can be beneficially exploited to increase the retention of drug within tumors by allowing the assembly process to respond structurally in the environment of the tumor cells.

[5] = tested on: HT-29 cells; experiment: Flow cytometry of cellular uptake as a function of time; type: cell-based, human; settings: as a function of incubation time
Description: To quantify the cellular uptake as a function of time, flow cytometry was conducted by monitoring the CPT dipetides at a wavelength of 420-470 nm after 335 nm excitation. […] An analogous flow cytometry study was performed with A549 cells, and similar results and trends were observed.

[6] = tested on: Lewis Lung Carcinoma (LLC); experiment: Lewis Lung Carcinoma (LLC) flank tumor model in mice; type: in vivo; settings: tumor cells into the flank, weekly intravenous or intraperitoneal
Description: as §1

[7] = tested on: HT-29 cells; experiment: In vitro cell assay, HT-29 viability by MTS colorimetric assay; type: cell-based, human; settings: HT-29, 4 days growth after exposure, conjugates prepared at 10 mM in PBS, aged 3 days
Description: The conjugates discussed in Examples 1 and 2 were tested for efficacy against killing human colorectal cancer cells in an in vitro cell assay. HT-29 cells were plated into 96-well tissue culture plates, at a density of 5,000 cells/well, and allowed to grow overnight. The conjugates were previously prepared at 10 mM in sterile PBS and allowed to age 3 days, while all other Camptothecin drugs were prepared fresh for each experiment/replicate. Irinotecan HCl was dissolved in pH-neutral, sterile-filtered water, and S-Camptothecin and 10-hydroxycamptothecin were dissolved in DMSO due to solubility issues. Further dilutions of all drugs, both Camptothecin-peptides and free Camptothecin derivatives, were performed in cell culture medium. The cells were then exposed to serial dilutions containing the drugs or cell culture medium alone for the control. A peptide derivative was prepared without Camptothecin to serve as a control to test for toxicity of the peptides themselves, and was also tested in this assay. The cells were then allowed to grow for a further 4 days before being assessed for viability using an MTS colorimetric assay.

**Q.** For `CC[C@@]1(OC(=O)CCC(=O)NCCCC[C@H](NC(=O)[C@H](CCCCNC(C)=O)NC(=O)OCC2c3ccccc3-c3ccccc32)C(N)=O)C(=O)OCc2c1cc1n(c2=O)Cc2cc3ccccc3nc2-1` [A, Fmoc-K(Ac)K(CPT)-NH2], which solubility in water [1] is on record?
**A.** Its solubility in water is “poor solubility”.

**Q.** For `CC[C@@]1(OC(=O)CCC(=O)NCCCC[C@H](NC(=O)[C@H](CCCCN)NC(C)=O)C(N)=O)C(=O)OCc2c1cc1n(c2=O)Cc2cc3ccccc3nc2-1` [C, Ac-KK(CPT)-NH2], which “lactone remaining after 24 h” value ([2]; 37° C., 0.2 mM) is on record?
**A.** The value was 80%.

**Q.** And the “lactone remaining after 7 days” value ([2]; 37° C., 0.2 mM)?
**A.** The value was 30%.

**Q.** And the “lactone form present after 7 days” value ([2]; 37° C.)?
**A.** The value was 91%.

**Q.** What about the “lactone stability after dilution to 1 mM” value [3] of the same compound?
**A.** The value was “significantly greater stability than D”.

**Q.** For `CC[C@@]1(O)C(=O)OCc2c1cc1n(c2=O)Cc2cc3ccccc3nc2-1` [CPT, Camptothecin, reference compound], which “time to hydrolysis to the inactive carboxylate form” value [2] is on record?
**A.** The value was “within hours”.

**Q.** And the “lactone remaining after 24 h” value ([2]; 37° C., 0.2 mM)?
**A.** The value was 17%.

**Q.** And the “Deaths from Tumor Burden” value ([4]; 5 mg/kg)?
**A.** The value was 0/5.

**Q.** For `CC[C@@]1(OC(=O)CCC(=O)NCCCC[C@H](NC(=O)[C@H](CCCCN)NC(=O)OCC2c3ccccc3-c3ccccc32)C(N)=O)C(=O)OCc2c1cc1n(c2=O)Cc2cc3ccccc3nc2-1` [Compound B, Fmoc-KK(CPT)-NH2], which “solubility in PBS” value [1] is on record?
**A.** Its value is “poor solubility”.

**Q.** What does the source list for `CC[C@@]1(OC(=O)CCC(=O)NCCCC[C@H](NC(=O)[C@H](CCCCN)NC(=O)[C@H](Cc2ccccc2)NC(=O)[C@H](CCCCN)NC(=O)OCC2c3ccccc3-c3ccccc32)C(N)=O)C(=O)OCc2c1cc1n(c2=O)Cc2cc3ccccc3nc2-1` [Compound E, Fmoc-KFKK(CPT)-NH2] (Fmoc-KFKK(Succinyl(20-O-(20S)-CPT))-NH2; N-terminus and C-terminus assumed)?
**A.** solubility in PBS [1]: soluble; solubility in water [1]: soluble

**Q.** For `CC[C@@]1(OC(=O)CCC(=O)NCCCC[C@H](NC(=O)[C@H](CCCCN)NC(=O)[C@H](Cc2ccccc2)NC(=O)[C@H](CCCCN)NC(C)=O)C(N)=O)C(=O)OCc2c1cc1n(c2=O)Cc2cc3ccccc3nc2-1` [Compound F, Ac-KFKK(CPT)-NH2] (Ac-KFKK(Succinyl(20-O-(20S)-CPT))-NH2), which “solubility in PBS” value [1] is on record?
**A.** Its value is “soluble”.

**Q.** What about the “precipitation in PBS at 10 mM” value [1] of the same compound?
**A.** Its value is “remained highly soluble”.

**Q.** What about the solubility in water [1] of the same compound?
**A.** The solubility in water was “soluble”.

**Q.** For `CC[C@@]1(OC(=O)CCC(=O)NCCCC[C@H](NC(=O)[C@@H](N)CCCCN)C(N)=O)C(=O)OCc2c1cc1n(c2=O)Cc2cc3ccccc3nc2-1` [D, NH2—KK(CPT)-NH2], which “lactone form present after 7 days” value ([2]; 37° C.) is on record?
**A.** The value was 71%.

**Q.** What about the “cellular uptake (fluorescence, 420-470 nm after 335 nm excitation)” value [5] of the same compound?
**A.** The value was “slightly higher than that of C”.

**Q.** What about the “in vivo efficacy (tumor burden)” value [6] of the same compound?
**A.** Its value is “lower in vivo efficacy”.

**Q.** And the “Deaths from Tumor Burden” value ([4]; 5 mg/kg)?
**A.** The value was 2/5.

**Q.** And the “Deaths from Tumor Burden” value ([4]; 15 mg/kg)?
**A.** The value was 2/5.

**Q.** What about the “in vivo efficacy (tumor burden)” value ([4]; mesothelioma model, tumor cells into the peritoneum, weekly intravenous or intraperitoneal) of the same compound?
**A.** Its value is “lower in vivo efficacy”.

**Q.** What about the “solubility in PBS” value [1] of the same compound?
**A.** The value was “limited solubility”.

**Q.** With `CC[C@@]1(OC(=O)CCC(=O)NCCCC[C@H](NC(=O)[C@H](CCCCN)NC(=O)[C@H](Cc2ccccc2)NC(=O)[C@@H](N)CCCCN)C(N)=O)C(=O)OCc2c1cc1n(c2=O)Cc2cc3ccccc3nc2-1` [G, NH2—KFKK(CPT)-NH2] (H-KFKK(Succinyl(20-O-(20S)-CPT))-NH2) as the compound, how does the “solubility in PBS” value [1] read?
**A.** The value was “soluble”.

**Q.** What about the “precipitation in PBS at 10 mM” value [1] of the same compound?
**A.** The value was “remained highly soluble”.

**Q.** What about the solubility in water [1] of the same compound?
**A.** Its solubility in water is “soluble”.

**Q.** What does the source list for `CCc1c2c(nc3ccc(OC(=O)N4CCC(N5CCCCC5)CC4)cc13)-c1cc3c(c(=O)n1C2)COC(=O)[C@]3(O)CC` [Irinotecan HCl, reference compound]?
**A.** cellular uptake (fluorescence, 420-470 nm after 335 nm excitation) [5]: highest fluorescence; Deaths from Tumor Burden ([4]; 100 mg/kg): 0/5; potency in killing human colorectal cancer cells (viability) [7]: the least potent
